According to patent US20160272683A1 (Novo Nordisk, published 2016):
Numbered stars: 1 amine (or outer) side, 2 acyl side, 3 side chain; on linkers, the order of the positions; unused ones are H or OH. * marks the point of attachment. C20 diacid = O=C(O)CCCCCCCCCCCCCCCCCCC(=O)*; C18 diacid = O=C(O)CCCCCCCCCCCCCCCCC(=O)*; γGlu = O=C(O)[C@H](CCC(=O)[*:2])N[*:1]; AEEA = NCCOCCOCC(=O)O

T1: human amylin receptor (human calcitonin receptor + human RAMP3) (human) (UniProt P30988)
T1 sequence (looked up) 1: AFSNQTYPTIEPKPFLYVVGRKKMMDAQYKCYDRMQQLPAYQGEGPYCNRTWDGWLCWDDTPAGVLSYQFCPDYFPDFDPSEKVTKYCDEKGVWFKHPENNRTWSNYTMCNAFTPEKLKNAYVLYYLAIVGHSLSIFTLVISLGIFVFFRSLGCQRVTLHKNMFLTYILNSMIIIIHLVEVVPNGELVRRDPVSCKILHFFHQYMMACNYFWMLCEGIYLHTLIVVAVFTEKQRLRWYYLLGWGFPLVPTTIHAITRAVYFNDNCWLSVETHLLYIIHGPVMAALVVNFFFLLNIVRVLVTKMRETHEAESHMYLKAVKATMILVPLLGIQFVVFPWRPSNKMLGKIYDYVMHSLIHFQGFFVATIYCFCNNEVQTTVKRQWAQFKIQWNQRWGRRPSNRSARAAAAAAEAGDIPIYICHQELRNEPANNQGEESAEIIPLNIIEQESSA
T1 sequence (looked up) 2: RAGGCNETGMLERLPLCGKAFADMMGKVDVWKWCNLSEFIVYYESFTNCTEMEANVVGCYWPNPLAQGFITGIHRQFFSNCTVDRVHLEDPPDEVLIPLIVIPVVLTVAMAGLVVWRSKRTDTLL

B1: [N-terminal(C20 diacid-gGlu), des1, 30S, 31G, 33S]mimylin (peptide)
peptide: {C20 diacid-γGlu}-ASELSTAALGRLSAELHELATLPRTETGSGSS-NH2
SMILES: CC(C)C[C@H](NC(=O)[C@H](C)NC(=O)[C@H](C)NC(=O)[C@@H](NC(=O)[C@H](CO)NC(=O)[C@H](CC(C)C)NC(=O)[C@H](CCC(=O)O)NC(=O)[C@H](CO)NC(=O)[C@H](C)NC(=O)CC[C@H](NC(=O)CCCCCCCCCCCCCCCCCCC(=O)O)C(=O)O)[C@@H](C)O)C(=O)NCC(=O)N[C@@H](CCCNC(=N)N)C(=O)N[C@@H](CC(C)C)C(=O)N[C@@H](CO)C(=O)N[C@@H](C)C(=O)N[C@@H](CCC(=O)O)C(=O)N[C@@H](CC(C)C)C(=O)N[C@@H](Cc1c[nH]cn1)C(=O)N[C@@H](CCC(=O)O)C(=O)N[C@@H](CC(C)C)C(=O)N[C@@H](C)C(=O)N[C@H](C(=O)N[C@@H](CC(C)C)C(=O)N1CCC[C@H]1C(=O)N[C@@H](CCCNC(=N)N)C(=O)N[C@H](C(=O)N[C@@H](CCC(=O)O)C(=O)N[C@H](C(=O)NCC(=O)N[C@@H](CO)C(=O)NCC(=O)N[C@@H](CO)C(=O)N[C@@H](CO)C(N)=O)[C@@H](C)O)[C@@H](C)O)[C@@H](C)O
B2: [N-terminal(C18 diacid), 9V, 28P]mimylin (peptide)
peptide: {C18 diacid}-EASELSTAVLGRLSAELHELATLPRTEPGPESP-NH2
SMILES: CC(C)C[C@H](NC(=O)[C@H](CCC(=O)O)NC(=O)[C@H](Cc1c[nH]cn1)NC(=O)[C@H](CC(C)C)NC(=O)[C@H](CCC(=O)O)NC(=O)[C@H](C)NC(=O)[C@H](CO)NC(=O)[C@H](CC(C)C)NC(=O)[C@H](CCCNC(=N)N)NC(=O)CNC(=O)[C@H](CC(C)C)NC(=O)[C@@H](NC(=O)[C@H](C)NC(=O)[C@@H](NC(=O)[C@H](CO)NC(=O)[C@H](CC(C)C)NC(=O)[C@H](CCC(=O)O)NC(=O)[C@H](CO)NC(=O)[C@H](C)NC(=O)[C@H](CCC(=O)O)NC(=O)CCCCCCCCCCCCCCCCC(=O)O)[C@@H](C)O)C(C)C)C(=O)N[C@@H](C)C(=O)N[C@H](C(=O)N[C@@H](CC(C)C)C(=O)N1CCC[C@H]1C(=O)N[C@@H](CCCNC(=N)N)C(=O)N[C@H](C(=O)N[C@@H](CCC(=O)O)C(=O)N1CCC[C@H]1C(=O)NCC(=O)N1CCC[C@H]1C(=O)N[C@@H](CCC(=O)O)C(=O)N[C@@H](CO)C(=O)N1CCC[C@H]1C(N)=O)[C@@H](C)O)[C@@H](C)O
B3: [N-terminal(C20 diacid-gGlu), des1, 30S, 31G, 33F]mimylin (peptide)
peptide: {C20 diacid-γGlu}-ASELSTAALGRLSAELHELATLPRTETGSGSF-NH2
SMILES: CC(C)C[C@H](NC(=O)[C@H](C)NC(=O)[C@H](C)NC(=O)[C@@H](NC(=O)[C@H](CO)NC(=O)[C@H](CC(C)C)NC(=O)[C@H](CCC(=O)O)NC(=O)[C@H](CO)NC(=O)[C@H](C)NC(=O)CC[C@H](NC(=O)CCCCCCCCCCCCCCCCCCC(=O)O)C(=O)O)[C@@H](C)O)C(=O)NCC(=O)N[C@@H](CCCNC(=N)N)C(=O)N[C@@H](CC(C)C)C(=O)N[C@@H](CO)C(=O)N[C@@H](C)C(=O)N[C@@H](CCC(=O)O)C(=O)N[C@@H](CC(C)C)C(=O)N[C@@H](Cc1c[nH]cn1)C(=O)N[C@@H](CCC(=O)O)C(=O)N[C@@H](CC(C)C)C(=O)N[C@@H](C)C(=O)N[C@H](C(=O)N[C@@H](CC(C)C)C(=O)N1CCC[C@H]1C(=O)N[C@@H](CCCNC(=N)N)C(=O)N[C@H](C(=O)N[C@@H](CCC(=O)O)C(=O)N[C@H](C(=O)NCC(=O)N[C@@H](CO)C(=O)NCC(=O)N[C@@H](CO)C(=O)N[C@@H](Cc1ccccc1)C(N)=O)[C@@H](C)O)[C@@H](C)O)[C@@H](C)O
B4: [N-terminal(C18 diacid), 9V, 18A]mimylin (peptide)
peptide: {C18 diacid}-EASELSTAVLGRLSAELAELATLPRTETGPESP-NH2
SMILES: CC(C)C[C@H](NC(=O)[C@H](CCC(=O)O)NC(=O)[C@H](C)NC(=O)[C@H](CO)NC(=O)[C@H](CC(C)C)NC(=O)[C@H](CCCNC(=N)N)NC(=O)CNC(=O)[C@H](CC(C)C)NC(=O)[C@@H](NC(=O)[C@H](C)NC(=O)[C@@H](NC(=O)[C@H](CO)NC(=O)[C@H](CC(C)C)NC(=O)[C@H](CCC(=O)O)NC(=O)[C@H](CO)NC(=O)[C@H](C)NC(=O)[C@H](CCC(=O)O)NC(=O)CCCCCCCCCCCCCCCCC(=O)O)[C@@H](C)O)C(C)C)C(=O)N[C@@H](C)C(=O)N[C@@H](CCC(=O)O)C(=O)N[C@@H](CC(C)C)C(=O)N[C@@H](C)C(=O)N[C@H](C(=O)N[C@@H](CC(C)C)C(=O)N1CCC[C@H]1C(=O)N[C@@H](CCCNC(=N)N)C(=O)N[C@H](C(=O)N[C@@H](CCC(=O)O)C(=O)N[C@H](C(=O)NCC(=O)N1CCC[C@H]1C(=O)N[C@@H](CCC(=O)O)C(=O)N[C@@H](CO)C(=O)N1CCC[C@H]1C(N)=O)[C@@H](C)O)[C@@H](C)O)[C@@H](C)O
B5: [N-terminal(C20 diacid-gGlu), des1, 30S, 31G, 33L]mimylin (peptide)
peptide: {C20 diacid-γGlu}-ASELSTAALGRLSAELHELATLPRTETGSGSL-NH2
SMILES: CC(C)C[C@H](NC(=O)[C@H](CO)NC(=O)CNC(=O)[C@H](CO)NC(=O)CNC(=O)[C@@H](NC(=O)[C@H](CCC(=O)O)NC(=O)[C@@H](NC(=O)[C@H](CCCNC(=N)N)NC(=O)[C@@H]1CCCN1C(=O)[C@H](CC(C)C)NC(=O)[C@@H](NC(=O)[C@H](C)NC(=O)[C@H](CC(C)C)NC(=O)[C@H](CCC(=O)O)NC(=O)[C@H](Cc1c[nH]cn1)NC(=O)[C@H](CC(C)C)NC(=O)[C@H](CCC(=O)O)NC(=O)[C@H](C)NC(=O)[C@H](CO)NC(=O)[C@H](CC(C)C)NC(=O)[C@H](CCCNC(=N)N)NC(=O)CNC(=O)[C@H](CC(C)C)NC(=O)[C@H](C)NC(=O)[C@H](C)NC(=O)[C@@H](NC(=O)[C@H](CO)NC(=O)[C@H](CC(C)C)NC(=O)[C@H](CCC(=O)O)NC(=O)[C@H](CO)NC(=O)[C@H](C)NC(=O)CC[C@H](NC(=O)CCCCCCCCCCCCCCCCCCC(=O)O)C(=O)O)[C@@H](C)O)[C@@H](C)O)[C@@H](C)O)[C@@H](C)O)C(N)=O
B6: [N-terminal(C20 diacid-gGlu), 23Y, 30S, 31G]mimylin (peptide)
peptide: {C20 diacid-γGlu}-EASELSTAALGRLSAELHELATYPRTETGSGSP-NH2
SMILES: CC(C)C[C@H](NC(=O)[C@H](C)NC(=O)[C@H](C)NC(=O)[C@@H](NC(=O)[C@H](CO)NC(=O)[C@H](CC(C)C)NC(=O)[C@H](CCC(=O)O)NC(=O)[C@H](CO)NC(=O)[C@H](C)NC(=O)[C@H](CCC(=O)O)NC(=O)CC[C@H](NC(=O)CCCCCCCCCCCCCCCCCCC(=O)O)C(=O)O)[C@@H](C)O)C(=O)NCC(=O)N[C@@H](CCCNC(=N)N)C(=O)N[C@@H](CC(C)C)C(=O)N[C@@H](CO)C(=O)N[C@@H](C)C(=O)N[C@@H](CCC(=O)O)C(=O)N[C@@H](CC(C)C)C(=O)N[C@@H](Cc1c[nH]cn1)C(=O)N[C@@H](CCC(=O)O)C(=O)N[C@@H](CC(C)C)C(=O)N[C@@H](C)C(=O)N[C@H](C(=O)N[C@@H](Cc1ccc(O)cc1)C(=O)N1CCC[C@H]1C(=O)N[C@@H](CCCNC(=N)N)C(=O)N[C@H](C(=O)N[C@@H](CCC(=O)O)C(=O)N[C@H](C(=O)NCC(=O)N[C@@H](CO)C(=O)NCC(=O)N[C@@H](CO)C(=O)N1CCC[C@H]1C(N)=O)[C@@H](C)O)[C@@H](C)O)[C@@H](C)O

Each binder was assayed against T1, human amylin receptor (human calcitonin receptor + human RAMP3) (human) (assay: whole-cell competition vs 125I-rat amylin (Assay Va)).

IC50 [nM]	Binder
4.07	B1
9	B2
1.36	B3
0.745	B4
0.432	{C20 diacid-γGlu-AEEA-AEEA-AEEA}-ASELSTAALGRLSAELHELATLPRTETGSGSP-NH2 [[N-terminal(C20 diacid-gGlu-3xOEG), des1, 30S, 31G]mimylin]
3.05	B5
1.59	B6
